“And” between values parts separate entries of the source, which are not always exact repeats. Equal entries are not always repeated.
T1: Macaca fascicularis CD40 (Macaca fascicularis (cynomolgus monkey), UniProt P25942 21-277 (human entry))
T1 chain: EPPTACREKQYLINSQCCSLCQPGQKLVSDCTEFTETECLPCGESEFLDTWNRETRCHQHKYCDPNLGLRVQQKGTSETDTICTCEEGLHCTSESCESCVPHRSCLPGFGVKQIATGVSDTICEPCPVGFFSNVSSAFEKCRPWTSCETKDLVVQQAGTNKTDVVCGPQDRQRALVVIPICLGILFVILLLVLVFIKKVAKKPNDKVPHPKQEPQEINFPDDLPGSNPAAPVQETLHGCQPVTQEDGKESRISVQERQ


Key:
Macaca fascicularis CD40 = target: T1, Macaca fascicularis CD40; experiment: cell-based or functional assay
human CD40 = human CD40 (human, UniProt P25942 21-277); experiment: cell-based or functional assay
[1] = target: T2, biotinylated human CD40 (BMS) (human, UniProt P25942 21-193, limits assumed, biotinylated (sites not given)); experiment: BIAcore SPR, immobilised biotinylated human CD40, 1:1 fit;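 also: dAbs passed as doubling dilutions over CD40 chip at 25 °C in HBS-EP running buffer, 300 s dissociation, traces double-referenced against blank flow cell and buffer injection, global Langmuir fit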
T2 construct: Ligand immobilised on the streptavidin BIAcore chip

| Binder | hIZCD40L-driven Cyno B Cell Proliferation EC50 (Macaca fascicularis CD40) | hIZCD40L-driven Human B Cell Proliferation EC50 (human CD40) | CHO-hCD40L-driven DC Activation IL-12 EC50 (human CD40) | Kd [1] | koff [1] | kon [1] |
| --- | --- | --- | --- | --- | --- | --- |
| BMS3h-193-25 (other) VL: DIQMTQSPSSLSASVGDRVTITCRASQTIERRLNWYQQKPGKAPRLLIYLATRLQSGVPSRFSGSGSGTDFTLTISSLQPEDFATYYCHQYESPPLTFGQGTKVEIKR | 2200 nM | 303 nM |  |  |  |  |
| BMS3h-198 (other) VH: EVQLLESGGGLVQPGGSLRLSCAASGFTFAGYEMWWVRQAPGKGLERVSAISGSGGSTYYADSVKGRFTISRDDSKNTLYLQMNSLRAEDTAVYYCAKDPYSFDYWGQGTLVTVSS | > 7000 nM | 554 nM |  |  |  |  |
| BMS3h-202 (other) VH: EVQLLESGGGLVQPGGSLRLSCAASGFTFPTAEMVWVRQAPGKGLEWVSSISASGGSTYYADSVKGRFTISRDNSKNTLYLQMNSLRAEDTAVYYCAKEPVSYVATFDYWGQGTLVTVSS | > 7000 nM | 6400 nM |  |  |  |  |
| BMS3h-202-1 (other) VH: EVQLLESGGGLVQPGGSLRLSCAASGFTFPTAEMLWVRKAPGKGLEWVSSISASGGSTYYADSVKGRFTISRDNSKNTLYLQMNSLRAEDTAVYYCAKEPVSYVATFDYWGQGTLVTVSS | > 7000 nM | 192 nM |  |  |  |  |
| BMS3h-217-1 (other) VL: NIQMTQSPSSLSASVGDRVTITCRASHFIGTLLTWYQHKPGKAPKLLITYGSLLQSGVPSRFSGSGSGTDFTLTISSLQPEDFATYYCGQGVLWPATFGQGTKVEIKR | 35 nM | 45 nM |  |  |  |  |
| BMS3h-217-2 (other) VL: DIQMTQSPSSLSASVGDRVTITCRASHFIGTLLSWYQQKPRKAPKLLITYGSLLQSGVPSRFSGSGSGTDFTLTISSLHPEDFATYYCGQGVLWPPTFGQGTKVEIKR | 7 nM | 8 nM | 335 nM |  |  |  |
| BMS3h-217-4 (other) VL: DIQMTQSPSSLSASVGDRVTITCRASHFIATLLSWYQQKPGKAPKLLITYGSLLQSGVPSRFSGSGSGTDFTLTISSLQPEDFATYYCGQGVLWPPTFGQGTKVEIKR | 27 nM |  |  |  |  |  |
| BMS3h-217-5 (other) VL: DIQMTQSPSFLSASVGDRVTITCRASHFIATLLSWYQQKPGKAPKLLITYGSLLQSGVPSRFSGSGSGTDFTLTISSLQPEDFATYYCGQGVLWPPTFGQGTKVEIKR | 15 nM |  |  |  |  |  |
| BMS3h-217-6 (other) VL: DIQMTQSPSSLSASVGDRVTITCRASHFIGTLLSWYQQKPGKATKLLITYGSLLQSGVPSRFSGSGSGTDFTLTISSLQPEDFATYYCGQGVLWPPTFGQGTKVEIKR | 10 nM | 11 nM |  |  |  |  |
| BMS3h-217-8 (other) VL: DIQMTQSPSSLSASVGDRVTITCRASHFIGTLLSWYQHKPGKAPKLLITYGSLLQSGVPSRFSGSGSGTDFTLTISSLQPEDFATYYCGQGVLWPATFGQGTKVEIKR | 14 nM | 33 nM |  |  |  |  |
| BMS3h-217-14 (other) VL: DIQLTQSPSSLSASVGDRVTITCRASHFIGTLLSWYQQKPGKATKLLITYGSLLQSGVPSRFSGSGSGTDFTLTISSLQPEDFATYYCGQGVLWPPTFGQGTKVEIKR | 8 nM | 26 nM |  |  |  |  |
| BMS3h-217-15 (other) VL: DIQMTQSPSSLYASVGDRVTITCRVSHFIGTLLSWYQQKPGKAPKLLITYGSLLQSGVPSRFSGSGSGTDFTLSISSLQPEDFATYYCGQGVLWPPTFGQGTKVEIKQ | 20 nM | 47 nM |  |  |  |  |
| BMS3h-217-16 (other) VL: DIQMTQSPSSLSASVGDRVTITCRASHFIGTLLSWYQQKPRKAPKLLITYGSLLQSGVPSRFSGSGSGTDFTLTISSLQPEDFATYYCGQGVLWPPTFGQGTKVEIKR | 7 nM | 5 nM | 1120 nM |  |  |  |
| BMS3h-217-23 (other) VL: DIQMTQSPSSLSASVGDRVTITCRASHFIGSLLSWYQVKPGKAPKLLITYGSLLQSGVPSRFSGSGSGTDFTLTISSLQPEDFATYYCGQGVLWPATFGQGTTVEIKR | 15 nM | 16 nM |  |  |  |  |
| BMS3h-231 (other) VH: EVQLLESGGGLVQPGGSLRLSCAASGFTFSAYNMWWARQAPGKGLEWVSWINSTGSRTYYADSVKGRFTISRDNSKNTLYLQMNSLRAEDTAVYYCAKNWHRGRFDYWGQGTLVTVSS | > 7000 nM | 328 nM |  |  |  |  |
| BMS3h-233 (other) VH: EVQLLESGGGLVQPGGSLRLSCAASGFTFAHYNMRWVRQAPGKGLEWVSTITKTGFRTYYADSVKGRFTISRDNSKNTLYLQMNSLRAEDTAVYYCAKAGQFDFDYWGQGTLVTVSS | > 7000 nM | 184 nM | 1490 nM and > 2000 nM |  |  |  |
| BMS3h-240 (other) VH: EVQLLESGGGLVQPGGSLRLSCAASGFTFWVYDMRWVRQAPGKGLEWVSTISATGVHTYYADSVKGRFTISRDNSKNTLYLQMNSLRAEDTAVYYCAKYPPAGRFDYWGQGTLVTVSS | > 7000 nM | > 7000 nM |  |  |  |  |
| BMS3h-257 (other) VH: EVQLLESGGGLVQPGGSLRLSCAASGFTFQNYQMAWVRQAPGKGLEWVSTISGTGKNTYYADSVKGRFTISRDNSKNTLYLQMNSLRAEDTAVYYCAKTPQNYFSVRRFDYWGQGTLVTVSS | > 7000 nM | 135 nM | 704 nM |  |  |  |
| BMS3h-274 (other) VH: EVQLLESGGGLVQPGGSLRLSCAASGFTFDSYAMGWARQAPGKGLEWVSAIGAKGLSTYYADSVKGRFTISRDNSKNTLYLQMNSLRAEDTAVYYCAKAARGKFDYWGQGTLVTVSS | > 7000 nM |  |  |  |  |  |
| BMS3h-275 (other) VH: EVQLLESGGGLVQPGGSLRLSCAASGFTFTRYQMGWVRQAPGKGLEWVSVINVWGSSTYYADSVKGRFTISRDNSKNTLYLQMNSLRAEDTAVYYCAKMSGKFAYWGQGTLVTVSS | > 7000 nM | 157 nM |  |  |  |  |
| BMS3h-287 (other) VH: EVQLLESGGGLVQPGGSLRLSCAASGFTFTNYRMSWVRQAPGKGLEWVSAIDDLGVSTYYADSVKGRFTISRDNSKNTLYLQMNSLRAEDTAVYYCAKWRLKNSQPTDFDYWGQGTLVTVSS | 918 nM | 287 nM |  |  |  |  |
| BMS3h-296 (other) VH: EVQLLESGGGLVQPGGSLRLSCAASGFTFGAYPMYWVRQAPGKGLEWVSSIHKDGRITYYADSVKGRFTISRDNSKNTLYLQMNSLRAEDTAVYYCAKQGTPVDGFDYWGQGTLVTVSS | > 7000 nM | 306 nM |  |  |  |  |
| BMS3h-106 (other, domain antibody (dAb): single human VH domain) VH: EVQLLESGGGLVQPGGSLRLSCAASGFTFSTYHMQWVRQAPGKGLEWVSMIDADGLGTYYADSVKGRFTISRDNSKNTLYLQMNSLRAEDTAVYYCAKPGPQFGQFDYWGQGTLVTVSS |  |  |  | 350 nM | 0.046 s⁻¹ | 130000 M⁻¹ s⁻¹ |
| BMS3h-107 (other, domain antibody (dAb): single human VH domain) VH: EVQLLESGGGLVQPGGSLRLSCAASGFTFSGYDMQWVRQAPGKGLEWVSTISASGVFTYYADSVKGRFTTSRDNSKNTLYLQMNSLRAEDTAVYYCAKYPNRFALNNFDYWGQGTLVTVSS |  |  |  | 850 nM | 0.17 s⁻¹ | 200000 M⁻¹ s⁻¹ |
| BMS3h-131 (other, domain antibody (dAb): single human V kappa domain) VL: DIQMTQSPSSLSASVGDRVTITCRANSSILWALAWYQQKPGKAPKLLIESSSGLQSGVPSRFSGSGSGTDFTLTISSLQPEDFATYYCVQNAGWPGTFGQGTKVEIKR |  |  |  | 930 nM | 0.022 s⁻¹ | 24000 M⁻¹ s⁻¹ |
| BMS3h-197 (other, domain antibody (dAb): single human VH domain) VH: EVQLLESGGGLVQPGGSLRLSCAASGFTFGSAAMDWVRQAPGKGLEWVSSINDMGSNTYYADSVKGRFTISRDNSKNTLYLQMNSLRAEDTAVYYCAKQGGRFDYWGQGTLVTVSS |  |  |  | 180 nM | 0.014 s⁻¹ | 81000 M⁻¹ s⁻¹ |
| BMS3h-202 (other, domain antibody (dAb): single human VH domain) VH: EVQLLESGGGLVQPGGSLRLSCAASGFTFPTAEMVWVRQAPGKGLEWVSSISASGGSTYYADSVKGRFTISRDNSKNTLYLQMNSLRAEDTAVYYCAKEPVSYVATFDYWGQGTLVTVSS |  |  |  | 2000 nM | 0.0035 s⁻¹ | 1700 M⁻¹ s⁻¹ |

Source: US20200199244A1 (published 2020)
